# Results published in patent US20240261333A1, “NOVEL TARGETS FOR ENHANCING ANTI-TUMOR IMMUNITY” (THE BROAD INSTITUTE, INC., priority 2021, published 2024).
# T1: B3GNT2 (Homo sapiens, UniProt Q9NY97)
# T1 construct: The respective ORFs of candidate genes [CD274 (NM_014143), MCL1 (NM_021960), JUNB (NM_002229), and B3GNT2 (NM_006577)] were synthesized; expressed in transfected cells; host or cells: A375 melanoma cells (lentiviral ORF overexpression)
# T1 sequence (Q9NY97 1-397): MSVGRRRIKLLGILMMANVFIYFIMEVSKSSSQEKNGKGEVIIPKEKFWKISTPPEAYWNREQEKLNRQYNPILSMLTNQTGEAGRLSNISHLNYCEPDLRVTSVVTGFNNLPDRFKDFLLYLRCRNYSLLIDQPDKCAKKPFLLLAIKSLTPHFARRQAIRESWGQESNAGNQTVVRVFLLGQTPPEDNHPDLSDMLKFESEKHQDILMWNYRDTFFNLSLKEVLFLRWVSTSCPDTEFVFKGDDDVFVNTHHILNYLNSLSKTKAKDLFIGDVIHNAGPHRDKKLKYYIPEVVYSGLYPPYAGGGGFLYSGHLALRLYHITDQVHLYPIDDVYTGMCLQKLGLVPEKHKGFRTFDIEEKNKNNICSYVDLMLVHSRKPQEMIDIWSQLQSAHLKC
# B1: CKAP4 (protein)
# chain: MPSAKQRGSKGGHGAASPSEKGAHPSGGADDVAKKPPPAPQQPPPPPAPHPQQHPQQHPQNQAHGKGGHRGGGGGGGKSSSSSSASAAAAAAAASSSASCSRRLGRALNFLFYLALVAAAAFSGWCVHHVLEEVQQVRRSHQDFSRQREELGQGLQGVEQKVQSLQATFGTFESILRSSQHKQDLTEKAVKQGESEVSRISEVLQKLQNEILKDLSDGIHVVKDARERDFTSLENTVEERLTELTKSINDNIAIFTEVQKRSQKEINDMKAKVASLEESEGNKQDLKALKEAVKEIQTSAKSREWDMEALRSTLQTMESDIYTEVRELVSLKQEQQAFKEAADTERLALQALTEKLLRSEESVSRLPEEIRRLEEELRQLKSDSHGPKEDGGFRHSEAFEALQQKSQGLDSRLQHVEDGVLSMQVASARQTESLESLLSKSQEHEQRLAALQGRLEGLGSSEADQDGLASTVRSLGETQLVLYGDVEELKRSVGELPSTVESLQKVQEQVHTLLSQDQAQAARLPPQDFLDRLSSLDNLKASVSQVEADLKMLRTAVDSLVAYSVKIETNENNLESAKGLLDDLRNDLDRLFVKVEKIHEKV
# B2: PRR4 (protein)
# chain: QSTDNDVNYEDFTFTIPDVEDSSQRPDQGPQRPPPEGLLPRPPGDSGNQDDGPQQRPPKPGGHHRHPPPPPFQNQQRPPRRGHRQLSLPRFPSVSLQEASSFFQRDRPARHPQEQPLW
# B3: SLC25A3 (protein)
# chain: AVEEQYSCDYGSGRFFILCGLGGIISCGTTHTALVPLDLVKCRMQVDPQKYKGIFNGFSVTLKEDGVRGLAKGWAPTFLGYSMQGLCKFGFYEVFKVLYSNMLGEENTYLWRTSLYLAASASAEFFADIALAPMEAAKVRIQTQPGYANTLRDAAPKMYKEEGLKAFYKGVAPLWMRQIPYTMMKFACFERTVEALYKFVVPKPRSECSKPEQLVVTFVAGYIAGVFCAIVSHPADSVVSVLNKEKGSSASLVLKRLGFKGVWKGLFARIIMIGTLTALQWFIYDSVKVYFRLPRPPPPEMPESLKKKLGLTQ
# B4: CASP14 (protein)
# chain: MSNPRSLEEEKYDMSGARLALILCVTKAREGSEEDLDALEHMFRQLRFESTMKRDPTAEQFQEELEKFQQAIDSREDPVSCAFVVLMAHGREGFLKGEDGEMVKLENLFEALNNKNCQALRAKPKVYIIQACRGEQRDPGETVGGDEIVMVIKDSPQTIPTYTDALHVYSTVEGYIAYRHDQKGSCFIQTLVDVFTKRKGHILELLTEVTRRMAEAELVQEGKARKTNPEIQSTLRKRLYLQ
# B5: HSPH1 (protein)
# chain: SVVGLDVGSQSCYIAVARAGGIETIANEFSDRCTPSVISFGSKNRTIGVAAKNQQITHANNTVSNFKRFHGRAFNDPFIQKEKENLSYDLVPLKNGGVGIKVMYMGEEHLFSVEQITAMLLTKLKETAENSLKKPVTDCVISVPSFFTDAERRSVLDAAQIVGLNCLRLMNDMTAVALNYGIYKQDLPSLDEKPRIVVFVDMGHSAFQVSACAFNKGKLKVLGTAFDPFLGGKNFDEKLVEHFCAEFKTKYKLDAKSKIRALLRLYQECEKLKKLMSSNSTDLPLNIECFMNDKDVSGKMNRSQFEELCAELLQKIEVPLYSLLEQTHLKVEDVSAVEIVGGATRIPAVKERIAKFFGKDISTTLNADEAVARGCALQCAILSPAFKVREFSVTDAVPFPISLIWNHDSEDTEGVHEVFSRNHAAPFSKVLTFLRRGPFELEAFYSDPQGVPYPEAKIGRFVVQNVSAQKDGEKSRVKVKVRVNTHGIFTISTASMVEKVPTEENEMSSEADMECLNQRPPENPDTDANEKKVDQPPEAKKPKIKVVNVELPIEANLVWQLGKDLLNMYIETEGKMIMQDKLEKERNDAKNAVEEYVYEFRDKLCGPYEKFICEQDHQNFLRLLTETEDWLYEEGEDQAKQAYVDKLEELMKIGTPVKVRFQEAEERPKMFEELGQRLQHYAKIAADFRNKDEKYNHIDESEMKKVEKSVNEVMEWMNNVMNAQAKKSLDQDPVVRAQEIKTKIKELNNTCEPVVTQPKPKIESPKLERTPNGPNIDKKEEDLEDKNNFGAEPPHQNGECYPNEKNSVNMDLD
# B6: SERPINE2 (protein)
# chain: SHFNPLSLEELGSNTGIQVFNQIVKSRPHDNIVISPHGIASVLGMLQLGADGRTKKQLAMVMRYGVNGVGKILKKINKAIVSKKNKDIVTVANAVFVKNASEIEVPFVTRNKDVFQCEVRNVNFEDPASACDSINAWVKNETRDMIDNLLSPDLIDGVLTRLVLVNAVYFKGLWKSRFQPENTKKRTFVAADGKSYQVPMLAQLSVFRCGSTSAPNDLWYNFIELPYHGESISMLIALPTESSTPLSAIIPHISTKTIDSWMSIMVPKRVQVILPKFTAVAQTDLKEPLKVLGITDMFDSSKANFAKITTGSENLHVSHILQKAKIEVSEDGTKASAATTAILIARSSPPWFIVDRPFLFFIRHNPTGAVLFMGQINKP
# B7: UQCRC2 (protein)
# chain: SLKVAPKVKATAAPAGAPPQPQDLEFTKLPNGLVIASLENYSPVSRIGLFIKAGSRYEDFSNLGTTHLLRLTSSLTTKGASSFKITRGIEAVGGKLSVTATRENMAYTVECLRGDVDILMEFLLNVTTAPEFRRWEVADLQPQLKIDKAVAFQNPQTHVIENLHAAAYRNALANPLYCPDYRIGKVTSEELHYFVQNHFTSARMALIGLGVSHPVLKQVAEQFLNMRGGLGLSGAKANYRGGEIREQNGDSLVHAAFVAESAVAGSAEANAFSVLQHVLGAGPHVKRGSNTTSHLHQAVAKATQQPFDVSAFNASYSDSGLFGIYTISQATAAGDVIKAAYNQVKTIAQGNLSNTDVQAAKNKLKAGYLMSVESSECFLEEVGSQALVAGSYMPPSTVLQQIDSVANADIINAAKKFVSGQKSMAASGNLGHTPFVDEL
# B8: SRSF7 (protein)
# chain: MSRYGRYGGETKVYVGNLGTGAGKGELERAFSYYGPLRTVWIARNPPGFAFVEFEDPRDAEDAVRGLDGKVICGSRVRVELSTGMPRRSRFDRPPARRPFDPNDRCYECGEKGHYAYDCHRYSRRRRSRSRSRSHSRSRGRRYSRSRSRSRGRRSRSASPRRSRSISLRRSRSASLRRSRSGSIKGSRYFQSPSRSRSRSRSISRPRSSRSKSRSPSPKRSRSPSGSPRRSASPERMD
# B9: CANX (protein)
# chain: HDGHDDDVIDIEDDLDDVIEEVEDSKPDTTAPPSSPKVTYKAPVPTGEVYFADSFDRGTLSGWILSKAKKDDTDDEIAKYDGKWEVEEMKESKLPGDKGLVLMSRAKHHAISAKLNKPFLFDTKPLIVQYEVNFQNGIECGGAYVKLLSKTPELNLDQFHDKTPYTIMFGPDKCGEDYKLHFIFRHKNPKTGIYEEKHAKRPDADLKTYFTDKKTHLYTLILNPDNSFEILVDQSVVNSGNLLNDMTPPVNPSREIEDPEDRKPEDWDERPKIPDPEAVKPDDWDEDAPAKIPDEEATKPEGWLDDEPEYVPDPDAEKPEDWDEDMDGEWEAPQIANPRCESAPGCGVWQRPVIDNPNYKGKWKPPMIDNPSYQGIWKPRKIPNPDFFEDLEPFRMTPFSAIGLELWSMTSDIFFDNFIICADRRIVDDWANDGWGLKKAADGAAEPGVVGQMIEAAEERPWLWVVYILTVALPVFLVILFCCSGKKQTSGMEYKKTDAPQPDVKEEEEEKEEEKDKGDEEEEGEEKLEEKQKSDAEEDGGTVSQEEEDRKPKAEEDEILNRSPRNRKPRRE
# Biological target: T1, B3GNT2
# Assay: Co-IP of FLAG-tagged B3GNT2 followed by mass spectrometry
# Assay type: cell-based
# Design: C-term IgG / C-term flag: unit not given here
# Settings: Co-IP with FLAG antibody, C-terminally FLAG-tagged B3GNT2; mass spectrometry count, unit not given
# Outline: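 Co-purifying proteins were identified by fractionated nano-LC–MS/MS on an Orbitrap Elite, run data-dependent. Beforehand, lysates in 1% Triton X-100/HEPES buffer were incubated overnight at 4° C with anti-FLAG or […] and pulled down on Protein A/G magnetic beads for 4 h. Duplicate biological replicates.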
row,Molecule,C-term flag
1,B1,14
2,B2,0
3,B3,9
4,B4,9
5,B5,7
6,B6,11
7,B7,4
8,B8,0
9,B9,11

# Same assay, conditions: Co-IP with FLAG antibody, N-terminally FLAG-tagged B3GNT2; mass spectrometry count, unit not given
row,Molecule,N-term FLAG
1,B1,2
2,B2,2
3,B3,4
4,B4,8
5,B5,8
6,B6,4
7,B7,13
8,B8,2
9,B9,6

# Same assay, conditions: Co-IP with IgG control antibody, C-terminally FLAG-tagged B3GNT2; mass spectrometry count, unit not given
row,Molecule,C-term IgG
1,B1,0
2,B2,0
3,B3,0
4,B4,4
5,B5,0
6,B6,0
7,B7,0
8,B8,0
9,B9,0

# Same assay, conditions: Co-IP with IgG control antibody, N-terminally FLAG-tagged B3GNT2; mass spectrometry count, unit not given
row,Molecule,N-term IgG
1,B1,0
2,B2,0
3,B3,0
4,B4,3
5,B5,0
6,B6,0
7,B7,0
8,B8,0
9,B9,0
